This note sets out measurements from the DeepSol protein solubility set.

This data set can be described thus: soluble on expression in E. coli; label from the status in PepcDB or PDB records.
Take “MAHHHHHHMSLAREKYLKRKRELLENINLIDIGEKISNTGKNEGNSKSDNIKKESRSRDFIKNDNRTRESFKKNDRGEYIDNDRKHLKSNNYNMLSSYNNKDIKNENRDLRKSPYDHRKLNNKNEQDILSNKTKRSSTNLQYNNDYAFVNKENNVLINNSSKMVNSTNNINEYLKDLNNIDINDSLILLFYVCKLLLDMCSKVNMNQSSMNTSVTSVEMLRDMKSKNRKNIKLFKINILNNILIYLSDENVNTLTQGNPNYKDNNFEKRHEEIRIDEKCIDIEHVGINIVIKVIYINNIKKLIFKYLYLINNNFKHDGVGNINMYDGRLNKNEEQNYFTTPLMEHKNINFMNN”: the “soluble on expression in E. coli” value is given as “not soluble”.
Under “MAHHHHHHMSQLSASPREEPVGIPELFLQYLKAKDLKDQLAIVRAHPVLFTDDVVAALKDARAQMNETFVEVKETCRVIDAVSGSLQYTGTSVQLQQTVAKELLDEDAILKKFATSLAGLLRARETAGPAAPSTISSLATASRVSSSLGAGKSHSPGAWFTQPSLVFSVLTFLSAEEIFITAENVCRAWQTWLFLPDMSRFFWVGCVQREFPEQLQVLLQTAGDDLYQSDWRSLAMLCVTEGEQAAEAEEAEEAGDGGAVRGVVPFL” stands “not soluble”.
Under “MAHHHHHHMSQTATAGPALPPPEEPLTYPITFTKQAEESPQSEPGVAAPAAPSGLHQISIFSALHFLLPVYELAGWLPKTTVQHSRKSGDKSSPVSATAGGSKSTSGTAADVSIDLDAIPHDDVRAALRLLPVFEKFFVEGSKIVAQHTDLYYFIESFTLPTPKGPKVITRSKVEGDYRAVHQPSHAPASLGAAGAMTKTTVTNSTAYFSLLPGHNQFLLYYEDCEKLRHFTYLQLDQLRFAWVAVKELLEESKVFNLSDGSLTGLAKRDLQKNNTASPFCLASSAQAATATERASSHDNGSNGGAVIGRGGGNARLHQGTSGNVITAPSKETTEEKKRIQQMSFLREELEHECQRRWPYTPVSKSCIFSLEEKVEAELPADALEQLGIVGAHNTRNSKNGNRRGPRYYLATVDLPLLNKKGGAARFKAPRWWNNRRDAESAAAEATLLALRSMKS” stands “not soluble”.
Under “MAHHHHHHMSRLKHVEWDEKNLEANAEYQRQHPVTIHITEPKTPYSYADGDDLEAEEEGLLKWDPAVNAKVKEIKEQIAGDFSDRPVAPIAKSGRPMLAEGTSTGELAQQQHQKEFRKMRKAVYADEGAMFKRALSHECKDEDDE” stands “not soluble”; under “MAHHHHHHMSRNPSNSDAAHAFWSTQPVPQTEDETEKIVFAGPMDEPKTVADIPEEPYPIASTFEWWTPNMEAADDIHAIYELLRDNYVEDDDSMFRFNYSEEFLQWALCPPNYIPDWHVAVRRKADKKLLAFIAGVPVTLRMGTPKYMKVKAQEKGEGEEAAKYDEPRHICEINFLCVHKQLREKRLAPILIKEATRRVNRTNVWQAVYTAGVLLPTPYASGQYFHRSLNPEKLVEIRFSGIPAQYQKFQNPMAMLKRNYQLPSAPKNSGLREMKPSDVPQVRRILMNYLDSFDVGPVFSDAEISHYLLPRDGVVFTYVVENDKKVTDFFSFYRIPSTVIGNSNYNLLNAAYVHYYAATSIPLHQLILDLLIVAHSRGFDVCNMVEILDNRSFVEQLKFGAGDGHLRYYFYNWAYPKIKPSQVALVML”, “not soluble”.
On to “MAHHHHHHMSRSSLIFENNNDNNEKKKRKLFQDEYNYQSCYPLSYLNVYNNNNNNNHNSNNNSNNDNNRIYDYAYSQSYNYTYDQTYNDVYNKIYNDSKNIAQNVLNVQVNEEPYDKSLNNSHTTYPFSNIINSNQLNSNILNNNEMIDMRNFYENGNFVNPMIENKDQNQFNEPNKNNLNNTMANVNNINNINNIQFDKSLLINCIDVLLNFMNYNNLKDTITEETLHENLINLRFYILRLNGGKVSQKKITEYFHKM”, for which the “soluble on expression in E. coli” value is given as “not soluble”.
For “MAHHHHHHMSSQKESKKRKSDALDQACLELSEEVENAEEVPKKNDEVEEEDLETQFSNWKVNSGLLYDFVSRKELEWPSLSIDFGDYHNENVEDSVFNQIVCVGTHTSNKELNYLYVCEVLFPLEQLPQENCIYKTNQNYEGFDFCPDKKKFTIQSKIAHEGEVNRIKFLPLEKKNFVVTKAIDGNLHLFDINKHEIETSEDKMSPEVSFIGNSSDGFGLDFNAEKKYALTCGNDGVLNLYDYTEMDSKKVSPFYSVKYKSPLNDVCATNDPNLILSCADNGYILMYDIRVKGEEPAQQVLGQQVAVNCISLNKFTGHFASGSENGKIKIWDIKRFSEPQHIIHAHKEPIIRLNFSPNDSSILGSASTSRFINIYNLTKIGEELDAIDLSDGPSELIFSHGGHTQPITDFNWNHHKQLKMFIGSTGEDNTLQFWQLKTELLDEANTVPTSNTDVE”, the “soluble on expression in E. coli” value is “not soluble”.
Under “MAHHHHHHMSSVDSTHRLLHPCTGILPSASLHGRHSIALAPPPTLPPPPLLHTRIPIHIHIIHYATLNPATFLDHSTQLDYEMPTRFKKCRHQRGSTFCGYGRVGKHRKHESGRGNAGGMHHHRINFDKYHPGYFGKLGMDHYHRKKNPMWKPTINLNNLSRLIAAEEAAKAAKGGTLPVVDLQSSGYAKLLGNGHIQVPCIVKARYVSKLADKKIRKAGGAVVLQA” stands “not soluble”; under “MAHHHHHHMSTEPTPRVIVFDLDGTLWRPEMYELWGGGAPFMLSKDNSSIAIDKKGTEVRLIGQTRELLQMLSTTEEWRNTHLAISSTCDEPRWAMELLQLFRFRDKRGNDVPMLSLFGDLVEIYKANKKNQHRTILKKVKEHDPTVRGDFSDFIFFDNQQDNIGHVSSIGVTSIYCPNGMVGGVFERGLKEWRDKEKKRAL”, “soluble”.
Under “MAHHHHHHMSTEVSSGSNDGPSFHHHIQDAVHMIWNNQCSEAEEILFPYKEIHPRYALEYANKYLVQTLMNSTNESREILLELFKVADSLASAAKYSEPMFDFDVENDGDGTGMSMCLPSKAERKISKKSFNGRRKAAEKAGQSFVDNWKLECDVIYADALLMRSVCQLMMNSYFKGGVNLRRTWGLYHKLIQVVEADRTNQIPNELKMCVKYGTGAFYAFLALVPANLMRLLNVIGFISDKELGEQYLTEVFESNGVRSPFAALVLCTLYLFLPTGLGRVEETLAKAKRILDAMNQKYEHNTYFYGYSNFYHRKRGETAEALMAIQLAETNAERAGLVPILIRYLHADTLFMDLRFEEARDRYAALLDHLAKTKESFAYTGQVVLSLAACFVMLGDDAQAIQWLKKVGSMYNSRSKNDANSPKFASRVLANPRLLPLCGVYMLYINRDLAHMKVEQAERLLEELTRVTKGKDLSGPEPENMFTLFVGVIHKGCDRIDEAFGYMSKIFANEKRVPNDSMVLPYAYYEAGELEYRRGNYENAKTLFTKGQSLKGDGNETLMNRYNIALKQLKRTMEERKGA” stands “not soluble”; under “MAHHHHHHMSTSNEEDKWSAISAKKIAPKYRKGYYPNRDIMTPKKKTEKKELTYKNSKIAIGRTKSLRFRRDTVTFATKNINFQHRKKSILSKQKSMAEPKLKKQNTVALKRRKTMSRLNSMKKPPYTIVLNKKKVINMNKGMHPSENRKDKISGTTNTPLAARRMLARSKTKVLVDNETKIFKKENVKMVSSNPFNPIASSVESSRRNELENGKQKKELGTVGSANKRESAQHLSTNADKKKIYHNSVRNKLKSKKEEMFQNIISLTKNMKEKPLKKKYNDQIDPRDLLSVTSNNSSVAVDDDL”, “not soluble”; under “MAHHHHHHMSYQPPYGYASSPQASPYFPGGNYYSTPPPIPQQQPFQTSPLFGTEQEAVQWFRAVSSSSGGYISVPQLQSALSQGGMNFSYATTERLISMFDANLDGAIDFTEFQELHRYILSMRGGFSQRDTSRDGLLEGNEVRMALSANFYQVDDNTFQTLMRKFDRRKRGSLGFDDYIELSLFVGKANDAFKAQSQGKASATFSFSSFLSAGASLL”, “soluble”.
On to “MAHHHHHHMTALITKQRYNWMGYDGVESAVCDTALLRSDGGPANNYNYMHRQQVIMEVKERLYRIKRDLGLIPEEELRAEERAIQRRRMEKKRREEEERIRKEAEEAARAEEMERRHLELEEAEERASAEEVATQASAEHKHYMNDSDEDSDEENGIDDEQSASLVAMLRTQEEIDSAIAGFTKGTRMLLASSGNGYVSYLDGSVHFTIAKVESHNASNREKVMQALAGTNVAMPTAEEYSLEEVRQAMHDRDTARKKLDALRALQDPTYTARIRSAEKDTYGTPVQQLMEEDGDMSALVANCEDAKRFAESVRKAYNSRAAASAHALACALCTPPFTAEQESTSEAQAPAGKMANAEDGVSQPTGANSPSSSTSAQ”, for which the “soluble on expression in E. coli” value is “not soluble”.
Under “MAHHHHHHMTDASKYKKLTPIDHVLLRPEMYVGSIETQPTPMYIFDPEKGRMVWETMRVNQGLLKIVDEILLNAADNINNSKGSVRQTYINIHISDTGEITVENDGAGLPIVRSREHKMYIPEMVFGHLLTSSNYNNDSTSTTAGRHGYGAKLTNILSTKFSVVCRTDGREFHMSWTDHMRMATAPRVNRVDPKEKNVTRVKFMPDYAHFGFPSASISLDMKRVLHKRVMDLAAMFSKIEVRLNNVPFGFRTFTDYAGLYSLPGLDGSMPPEPFVYTSPNGSVAYVPQLTQSPKRIVSVVNGVVTYNGGTHCNAAMDILDACLDSLSKNFKKNGKVVDTNRVQRHFTVLVFLVQAQPKFDSQSKARLVSTVTMPRVPKNTLEKYLERMPFLEAHVNSMDDQLTNELNKEIGAGRRLSSKTLISSITKLVDATSSRPDGRNIRTLIITEGDSAKALALNSLSSEQKKYCGVFPLRGKLLNVRNKNLKRLKTCKELQDLFLSLGLELGKEYRSPAELRYQRLLVMTDQDADGSHIKGLVINAFESLWPKLLQNNPGYISLFSTPIVKIKVSGKSKEAIAFHSFRDFHRWQRAHPSARYTAKYYKGLGTSTTAEGKEYFADMEKNVMQLTVDARDHQLLDSVFDAAEVEWRKEWMTKANAFQGEVDIDRSKKTLTIPEFVHKEMVHFALVGNARAIPHCVDGLKPSQRKILWAMLRRHNSEASKVAQLSGYISEASAFHHGEASLQETIVKMAQNFTGGNNINLLVPEGQFGSRQQLGSDHAAPRYIFTKLSRFARLLFPEEDDPLLDYMDEEGTFVEPHHYVPILPMLLCNGAVGIGFGFATTIPSFHPLDVSAAVRAMINGESAKQVVRNLVPWAVGFQGTVRRGPDNEFIAVGKYTAHPNGRFHISEIPWMTSIEAFRLHISSLASADVVQRIADYSGANHIDIDLIVRDGSLTTWAECETDLALAQRIYINGTVFSPAGTLSPIDSDLSPVLQWHYDRRLDLYKRRRTRKIGLMEMDLARLQSTRKFVEHFRQGQIDFLNATDDTLHKTCVKLGLVRVDESFDYILKKPITFFTRTSTEKLQADIAKTQAQIEELKRTTPVKMWLTELDKFDKTFQEYERVLINSIQKEQRSSSITGGVELPALRQPLLLLEASVKGATAYRVHACQYEKPPPSKRRPGESFGGARSSDSAVRGVGKRLVGSRAVFKKKKPMGRKNNVKVSLSTRVAQFAGAQLGRLLPHILV” stands “not soluble”; under “MAHHHHHHMTGLIAPHAGMSYSGRTAAEAFAVFREYLYAKGSKGSELERIFILGPSHTRGFEGCELSAASAYETPFGPLRVDTAVVDRVITDLRKAGVGAATASRRTDEAEHSIEMETPYLSHILHYPPTTTGAPVQPAAGRVAIVPIIVGWTNRQDEKAICDVLKPYMDDARNFFICSSDFCHWGERFSYTYHYKRSEYPNIGDSIIAMDHAAMELLEKRDLERWYAYLQMTKNTICGRAPISIGMQRWASKGNKARVKFVHYSQSNKCKDADDSSVSYAAAIIME”, “soluble”.
Regarding “MAHHHHHHMTQLHSVASLDYGDGRTCVCRICECGKHQCPGLRVPFVGETTYRDEYVGKSIERERPRKARQTVFPSKAEPGHFKTTKQEAADLLKGKDLRPAESYKPREAAAAPLPFEGTTTNRADFPGWMPDYNRTKRKEDPLPRLPGTYVTTKGAMEEPVRDLAEQGRLPKPPKSFKADDTLQNSLPFDGITNYTAEYQPKEVPMTRSAARDVQPVALPENRDFQTTVSAAYQVPPMHMRHDCPAAFVPMRPASRDGHIKLSVYNIPSGDTMY”, the “soluble on expression in E. coli” value is “not soluble”.
